# From doi:10.1101/2023.08.20.554025
# Key:
# Assay in all cases: negative-stain EM
# [1] = target: GhV F I268F/Q287P ectodomain (Ghanaian virus (GhV))
# [2] = target: GhV F I268F/Q287P/S196C/A215C ectodomain (Ghanaian virus (GhV))
# [3] = target: GhV F S196C/A215C ectodomain (Ghanaian virus (GhV))
substance,measurement,setting,value
GhV F I268F/Q287P ectodomain (domain or fragment),stoichiometry N,[1],3
GhV F I268F/Q287P/S196C/A215C ectodomain (domain or fragment),stoichiometry N,[2],3
GhV F S196C/A215C ectodomain (domain or fragment),stoichiometry N,[3],3
